Data set [1] addresses T1, MutS (Escherichia coli, UniProt P23909 1-853).
T1 sequence: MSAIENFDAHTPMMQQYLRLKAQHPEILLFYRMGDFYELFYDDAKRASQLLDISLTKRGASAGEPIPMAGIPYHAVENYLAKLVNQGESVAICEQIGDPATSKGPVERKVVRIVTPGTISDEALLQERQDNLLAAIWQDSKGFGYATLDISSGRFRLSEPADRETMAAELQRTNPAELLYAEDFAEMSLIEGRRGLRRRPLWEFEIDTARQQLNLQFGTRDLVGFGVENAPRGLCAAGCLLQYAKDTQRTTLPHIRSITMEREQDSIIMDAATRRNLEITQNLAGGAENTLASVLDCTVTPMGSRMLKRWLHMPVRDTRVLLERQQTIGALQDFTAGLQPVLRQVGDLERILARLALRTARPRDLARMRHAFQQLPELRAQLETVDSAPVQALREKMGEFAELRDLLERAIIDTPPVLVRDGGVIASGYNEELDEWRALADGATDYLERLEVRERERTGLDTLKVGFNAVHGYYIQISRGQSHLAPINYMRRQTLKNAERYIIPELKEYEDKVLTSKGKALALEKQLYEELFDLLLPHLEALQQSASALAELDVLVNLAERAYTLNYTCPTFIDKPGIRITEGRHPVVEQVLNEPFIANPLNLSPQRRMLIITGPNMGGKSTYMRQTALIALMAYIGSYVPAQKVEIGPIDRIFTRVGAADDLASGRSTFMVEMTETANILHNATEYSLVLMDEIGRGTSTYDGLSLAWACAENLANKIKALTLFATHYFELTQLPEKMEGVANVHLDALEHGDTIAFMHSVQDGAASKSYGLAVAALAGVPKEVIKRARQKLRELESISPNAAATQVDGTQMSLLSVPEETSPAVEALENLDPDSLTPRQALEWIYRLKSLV
The data set can be described thus: FRET equilibrium titration.

Data set [2] has as its target T1, MutS. Kind of data set: FRET equilibrium titration. This is another data set of the same source.
Data set [3] concerns the target T1, MutS. The data set can be described thus: competition.
Data set [4] concerns the target T1, MutS. The data set can be described thus: competition. This is another data set of the same source.
Data set [5] deals with the molecule itself. The data set can be described thus: other fluorescence titration.
Data set [6] deals with the molecule itself. Kind of data set: other fluorescence titration. This is another data set of the same source.
For data set [7], the target named is T1, MutS. The data set can be described thus: stopped-flow FRET kinetics.
The target in data set [8] is T1, MutS. Kind of data set: stopped-flow FRET kinetics. The source holds these as a separate data set.
The target of data set [9] is T1, MutS. The data set can be described thus: competition. This is another data set of the same source.

Like-named read-outs stand apart in the source and are kept apart here.

B1: 30-CT (dsDNA)
DNA 1: AACTGCCACGCACCAGTGTCAGCGTCGTAT
DNA 2: ATACGACGCTGACACTGGTGCTTGGCAGTT
On to B1, for which the Kd was determined as 331 nM in data set [1] and 324 nM in [2].

B2: 30-GG (dsDNA)
DNA 1: AACTGCCAGGCACCAGTGTCAGCGTCGTAT
DNA 2: ATACGACGCTGACACTGGTGCGTGGCAGTT
For B2, the figures for the Kd in [1] and in data set [2] were 137 nM and 168 nM, respectively.

B3: 90-bp homoduplex (dsDNA)
DNA 1: CGCAGTGCTAAGACGTACCATGCAACCGTAGATTCTAACTGCCAGGCACCAGTGTCAGCGTCGTATAGTCGTGTATAGATCGTTATCTGC
DNA 2: GCAGATAACGATCTATACACGACTATACGACGCTGACACTGGTGCCTGGCAGTTAGAATCTACGGTTGCATGGTACGTCTTAGCACTGCG
The molecule B3 showed a dissociation constant Kd in [3] of approximately 3700 nM. Further, in [4], the IC50 was approximately 3600 nM.

B4: E. coli His6-MutS (natural protein, UniProt P23909 1-853, looked up)
chain: MSAIENFDAHTPMMQQYLRLKAQHPEILLFYRMGDFYELFYDDAKRASQLLDISLTKRGASAGEPIPMAGIPYHAVENYLAKLVNQGESVAICEQIGDPATSKGPVERKVVRIVTPGTISDEALLQERQDNLLAAIWQDSKGFGYATLDISSGRFRLSEPADRETMAAELQRTNPAELLYAEDFAEMSLIEGRRGLRRRPLWEFEIDTARQQLNLQFGTRDLVGFGVENAPRGLCAAGCLLQYAKDTQRTTLPHIRSITMEREQDSIIMDAATRRNLEITQNLAGGAENTLASVLDCTVTPMGSRMLKRWLHMPVRDTRVLLERQQTIGALQDFTAGLQPVLRQVGDLERILARLALRTARPRDLARMRHAFQQLPELRAQLETVDSAPVQALREKMGEFAELRDLLERAIIDTPPVLVRDGGVIASGYNEELDEWRALADGATDYLERLEVRERERTGLDTLKVGFNAVHGYYIQISRGQSHLAPINYMRRQTLKNAERYIIPELKEYEDKVLTSKGKALALEKQLYEELFDLLLPHLEALQQSASALAELDVLVNLAERAYTLNYTCPTFIDKPGIRITEGRHPVVEQVLNEPFIANPLNLSPQRRMLIITGPNMGGKSTYMRQTALIALMAYIGSYVPAQKVEIGPIDRIFTRVGAADDLASGRSTFMVEMTETANILHNATEYSLVLMDEIGRGTSTYDGLSLAWACAENLANKIKALTLFATHYFELTQLPEKMEGVANVHLDALEHGDTIAFMHSVQDGAASKSYGLAVAALAGVPKEVIKRARQKLRELESISPNAAATQVDGTQMSLLSVPEETSPAVEALENLDPDSLTPRQALEWIYRLKSLV
Consider B4, for which the “stoichiometry N” value was 3.7 MutS monomers per heteroduplex in [5] and 3.58 MutS monomers per heteroduplex in data set [6].

B5: E. coli His6-mutS-A842E (natural protein, UniProt P23909 1-853, looked up)
chain: MSAIENFDAHTPMMQQYLRLKAQHPEILLFYRMGDFYELFYDDAKRASQLLDISLTKRGASAGEPIPMAGIPYHAVENYLAKLVNQGESVAICEQIGDPATSKGPVERKVVRIVTPGTISDEALLQERQDNLLAAIWQDSKGFGYATLDISSGRFRLSEPADRETMAAELQRTNPAELLYAEDFAEMSLIEGRRGLRRRPLWEFEIDTARQQLNLQFGTRDLVGFGVENAPRGLCAAGCLLQYAKDTQRTTLPHIRSITMEREQDSIIMDAATRRNLEITQNLAGGAENTLASVLDCTVTPMGSRMLKRWLHMPVRDTRVLLERQQTIGALQDFTAGLQPVLRQVGDLERILARLALRTARPRDLARMRHAFQQLPELRAQLETVDSAPVQALREKMGEFAELRDLLERAIIDTPPVLVRDGGVIASGYNEELDEWRALADGATDYLERLEVRERERTGLDTLKVGFNAVHGYYIQISRGQSHLAPINYMRRQTLKNAERYIIPELKEYEDKVLTSKGKALALEKQLYEELFDLLLPHLEALQQSASALAELDVLVNLAERAYTLNYTCPTFIDKPGIRITEGRHPVVEQVLNEPFIANPLNLSPQRRMLIITGPNMGGKSTYMRQTALIALMAYIGSYVPAQKVEIGPIDRIFTRVGAADDLASGRSTFMVEMTETANILHNATEYSLVLMDEIGRGTSTYDGLSLAWACAENLANKIKALTLFATHYFELTQLPEKMEGVANVHLDALEHGDTIAFMHSVQDGAASKSYGLAVAALAGVPKEVIKRARQKLRELESISPNAAATQVDGTQMSLLSVPEETSPAVEALENLDPDSLTPRQELEWIYRLKSLV
In the case of B5, the “stoichiometry N” value is 2.21 MutS monomers per heteroduplex in [5] and 2.27 MutS monomers per heteroduplex in [6].

B6: 30-TT (dsDNA)
DNA 1: AACTGCCATGCACCAGTGTCAGCGTCGTAT
DNA 2: ATACGACGCTGACACTGGTGCTTGGCAGTT
Take B6: the Kd in [1] was 321 nM; in data set [2], 291 nM.

B7: 30-AG (dsDNA)
DNA 1: AACTGCCAAGCACCAGTGTCAGCGTCGTAT
DNA 2: ATACGACGCTGACACTGGTGCGTGGCAGTT
With B7, the dissociation constant Kd in data set [1] is 251 nM; in data set [2], 319 nM.

B8: 30-TG (dsDNA)
DNA 1: AACTGCCATGCACCAGTGTCAGCGTCGTAT
DNA 2: ATACGACGCTGACACTGGTGCGTGGCAGTT
B8: the Kd in data set [1] came to 70 nM; in data set [2], 80 nM.

B9: 30-CC (dsDNA)
DNA 1: AACTGCCACGCACCAGTGTCAGCGTCGTAT
DNA 2: ATACGACGCTGACACTGGTGCCTGGCAGTT
In the case of B9, the Kd in data set [1] was 410 nM; in data set [2], 300 nM.

B10: 30-AA (dsDNA)
DNA 1: AACTGCCAAGCACCAGTGTCAGCGTCGTAT
DNA 2: ATACGACGCTGACACTGGTGCATGGCAGTT
For the molecule B10, the Kd in [7] turned out to be 63 nM; in data set [1] it was 108 nM; in data set [8] it was 153 nM; in data set [2], 214 nM.

B11: 30-2ΔT (dsDNA)
DNA 1: AACTGCCAGGCACCAGTGTCAGCGTCGTAT
DNA 2: ATACGACGCTGACACTGGTGCCTTTGGCAGTT
With B11, the Kd in [1] turned out to be 74 nM; in [2] it was 89 nM.
AACTGCCAGGCACCAGTGTCAGCGTCGTAT (ssDNA) [30-ssDNA] showed a dissociation constant Kd in data set [3] of 6500 nM. This molecule showed an IC50 in data set [4] of approximately 6200 nM.

B12: 30-GC (30-bp homoduplex) (dsDNA)
DNA 1: AACTGCCAGGCACCAGTGTCAGCGTCGTAT
DNA 2: ATACGACGCTGACACTGGTGCCTGGCAGTT
Take B12: the Kd in data set [9] was 30500 nM; in [3], 23100 nM.

B13: 30-AC (dsDNA)
DNA 1: AACTGCCAAGCACCAGTGTCAGCGTCGTAT
DNA 2: ATACGACGCTGACACTGGTGCCTGGCAGTT
In the case of B13, the Kd in data set [1] amounted to 97 nM; in data set [2], 154 nM.

For orientation: Kd means the concentration at which binding is half-saturated. A low value points to a tighter complex. The term IC50 denotes the midpoint of a concentration-inhibition curve. A high value points to weaker potency.

These data come from paper PMC2666446 (Journal of molecular biology, 2008).
